The subject of the data set is Escherichia coli TOP10. As to the kind of experiment: shrunken log2 fold change of peptide-encoding DNA abundance (4.5 h post-induction vs induction); higher = less antimicrobial activity (less host growth inhibition). To be noted: time post-induction: 4.5 h; library: site-saturation at positions 5, 18, 19, 20.
For RRIRCRPPRLPRPRPRPNSKPRP, the “shrunken log2 fold change” value was 0.297. RRIRPRPPRLPRPRPRPMCFPRP: the “shrunken log2 fold change” value is -0.405. For the sequence RRIRNRPPRLPRPRPRPQQIPRP, the “shrunken log2 fold change” value is -0.23. For RRIRGRPPRLPRPRPRPPTQPRP the value was 0.727; for RRIRRRPPRLPRPRPRPAIMPRP, 0.275; for RRIRDRPPRLPRPRPRPEMAPRP, 0.0683. Next, RRIRFRPPRLPRPRPRPQWWPRP: -0.0312.

As for RRIRHRPPRLPRPRPRPPMFPRP, the “shrunken log2 fold change” value is -0.214. For RRIRTRPPRLPRPRPRPLIVPRP the value was -0.438. Next, RRIRQRPPRLPRPRPRPWRMPRP: -0.421. Next, RRIRNRPPRLPRPRPRPTGVPRP: 0.147; RRIRHRPPRLPRPRPRPPFEPRP: 0.161; RRIRGRPPRLPRPRPRPNQTPRP: -0.0961.

On to RRIRYRPPRLPRPRPRPWWSPRP, for which the “shrunken log2 fold change” value was -0.0117. For RRIRIRPPRLPRPRPRPLMRPRP the value was 0.466. Next, RRIRYRPPRLPRPRPRPVGKPRP: -1.51; RRIRYRPPRLPRPRPRPAFLPRP: -0.365; RRIRRRPPRLPRPRPRPNFMPRP: 0.142. For RRIRYRPPRLPRPRPRPCGWPRP, the “shrunken log2 fold change” value is -0.00979.

Turning to RRIRCRPPRLPRPRPRPPSRPRP, the “shrunken log2 fold change” value was determined as 0.558. Next, RRIRNRPPRLPRPRPRPPFHPRP: -0.17.

On to RRIRARPPRLPRPRPRPSGWPRP, for which the “shrunken log2 fold change” value was 0.861.

As for RRIRYRPPRLPRPRPRPKMNPRP, the “shrunken log2 fold change” value is -0.616.

For RRIRFRPPRLPRPRPRPSLRPRP, the “shrunken log2 fold change” value is -0.262. Next, RRIRERPPRLPRPRPRPSQNPRP: -0.267; RRIRPRPPRLPRPRPRPCICPRP: -0.728. Next, RRIRCRPPRLPRPRPRPRACPRP: 0.24; RRIRKRPPRLPRPRPRPRRSPRP: 0.0846; RRIRYRPPRLPRPRPRPKDSPRP: -0.0869.

Consider RRIRIRPPRLPRPRPRPTDWPRP, for which the “shrunken log2 fold change” value was determined as 0.0724. In the case of RRIRARPPRLPRPRPRPNTWPRP, the “shrunken log2 fold change” value is 0.0711. For RRIRFRPPRLPRPRPRPLQKPRP the value was -0.235; for RRIRSRPPRLPRPRPRPRSNPRP, -0.186; for RRIRTRPPRLPRPRPRPEPTPRP, 0.347. For RRIRPRPPRLPRPRPRPYNTPRP the value was -0.928; for RRIRERPPRLPRPRPRPWNLPRP, -0.00195.

For the sequence RRIRRRPPRLPRPRPRPVLSPRP, the “shrunken log2 fold change” value came to 0.0336. For RRIRMRPPRLPRPRPRPHIWPRP the value was -0.0244. For RRIRQRPPRLPRPRPRPGHVPRP the value was 0.0119; for RRIRVRPPRLPRPRPRPTITPRP, -0.178. For RRIRERPPRLPRPRPRPQAMPRP the value was 0.00616; for RRIRFRPPRLPRPRPRPTAWPRP, 0.618. As for RRIRYRPPRLPRPRPRPAAMPRP, the “shrunken log2 fold change” value amounted to 1.99. For RRIRMRPPRLPRPRPRPAGVPRP the value was 0.688; for RRIRGRPPRLPRPRPRPYQYPRP, -0.0692.

For RRIRGRPPRLPRPRPRPVQSPRP, the “shrunken log2 fold change” value was 0.689. For RRIRSRPPRLPRPRPRPTAQPRP the value was 0.405; for RRIRTRPPRLPRPRPRPMDTPRP, 0.0257; for RRIRQRPPRLPRPRPRPVVHPRP, -0.164. Turning to RRIRTRPPRLPRPRPRPKSLPRP, the “shrunken log2 fold change” value is -0.291. As to RRIRRRPPRLPRPRPRPYPRPRP, the “shrunken log2 fold change” value turned out to be 0.207. Next, RRIRCRPPRLPRPRPRPAITPRP: -0.372; RRIRRRPPRLPRPRPRPRMRPRP: 0.744; RRIRQRPPRLPRPRPRPQFLPRP: -0.359. For RRIRNRPPRLPRPRPRPRNLPRP the value was -0.0378. Next, RRIRHRPPRLPRPRPRPNWTPRP: -0.0102; RRIRTRPPRLPRPRPRPSSGPRP: 0.11; RRIRLRPPRLPRPRPRPWREPRP: -0.018. In the case of RRIRPRPPRLPRPRPRPELVPRP, the “shrunken log2 fold change” value turned out to be 0.442. In the case of RRIRQRPPRLPRPRPRPPQKPRP, the “shrunken log2 fold change” value was -0.167. Next, RRIRGRPPRLPRPRPRPHVNPRP: 0.295. For RRIRRRPPRLPRPRPRPIWLPRP the value was 0.0778; for RRIRWRPPRLPRPRPRPQREPRP, 0.0297; for RRIRQRPPRLPRPRPRPAHWPRP, 0.261.

For the sequence RRIRLRPPRLPRPRPRPHCRPRP, the “shrunken log2 fold change” value is -0.254. For RRIRVRPPRLPRPRPRPRGHPRP, the “shrunken log2 fold change” value is 0.175. For RRIRMRPPRLPRPRPRPNMQPRP, the “shrunken log2 fold change” value came out at 0.0607. Take RRIRKRPPRLPRPRPRPNNNPRP: the “shrunken log2 fold change” value is -0.255. Next, RRIRQRPPRLPRPRPRPVIEPRP: 0.162; RRIRDRPPRLPRPRPRPFHSPRP: -0.13. Next, RRIRYRPPRLPRPRPRPSHSPRP: -0.0971; RRIRFRPPRLPRPRPRPNFRPRP: 0.157. As for RRIRVRPPRLPRPRPRPSAPPRP, the “shrunken log2 fold change” value is 0.358. For the sequence RRIRQRPPRLPRPRPRPGRNPRP, the “shrunken log2 fold change” value was -0.0272. Consider RRIRPRPPRLPRPRPRPHTEPRP, for which the “shrunken log2 fold change” value was found to be 0.0462. As for RRIRCRPPRLPRPRPRPKSMPRP, the “shrunken log2 fold change” value is -0.541. For RRIRIRPPRLPRPRPRPIKQPRP the value was 0.00391; for RRIRDRPPRLPRPRPRPGWLPRP, 0.127; for RRIRCRPPRLPRPRPRPRFMPRP, -0.244.

For the sequence RRIRYRPPRLPRPRPRPPHFPRP, the “shrunken log2 fold change” value was -0.139. On to RRIRCRPPRLPRPRPRPFWCPRP, for which the “shrunken log2 fold change” value is -0.397. Consider RRIRQRPPRLPRPRPRPISWPRP, for which the “shrunken log2 fold change” value is -0.12. In the case of RRIRKRPPRLPRPRPRPGYPPRP, the “shrunken log2 fold change” value was determined as 0.0931.

As for RRIRPRPPRLPRPRPRPAWKPRP, the “shrunken log2 fold change” value is -0.109. Next, RRIRYRPPRLPRPRPRPNWIPRP: -0.312.

As to RRIRRRPPRLPRPRPRPQNIPRP, the “shrunken log2 fold change” value is -0.33. Regarding RRIRKRPPRLPRPRPRPVDVPRP, the “shrunken log2 fold change” value was determined as 0.116.

As to RRIRRRPPRLPRPRPRPASCPRP, the “shrunken log2 fold change” value came out at 0.0969. Next, RRIRTRPPRLPRPRPRPIDLPRP: -1.07. Take RRIRCRPPRLPRPRPRPYNQPRP: the “shrunken log2 fold change” value is -1.23. For RRIRARPPRLPRPRPRPCLMPRP the value was -0.0504.

These data come from the supplement of paper PMC9112550, “Optimization of the antimicrobial peptide Bac7 by deep mutational scanning” (BMC Biology, 2022).
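Further: peptides expressed intracellularly from a pBAD plasmid library in pooled LB shake-flask culture, induced with 0.3% L-arabinose, DNA abundance read by NGS, three biological replicates, DESeq2 with apeglm shrinkage.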
